Assay: yeast display, Sf9 membrane polyspecificity reagent, FACS + sequencing; frameworks hold sequencing errors
How it was run: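 After 36–48 hours of galactose induction, yeast (Saccharomyces cerevisiae BJ5465) displaying a synthetic nanobody library were stained at 4 °C for 1 hour with 10% biotinylated, detergent-solubilized Sf9 membrane reagent. Streptavidin microbeads enriched the stained cells before FACS sorting into low and high (top ~1%) gates on anti-HA and streptavidin fluorescence. Each clone's polyreactivity label reflects its gate of origin.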
For “QVQLVESGGGLVQAGGSLRLSCAASGSIFAVYAMGWYRQAPGKERELVASISRTGTTNYADSVKGRFTISRDNAKNTVYLQMNSLKPEDTAVYYCAADTWGLPDGYWYSEHPEFDYWGQGTQVTVSS”, the “polyreactivity (PSR sort gate)” value was “low polyreactivity”. With “QVQLVESGGGLVQAGGSLRLSCAASGSIFAVYAMGWYRQAPGKERELVASISRTGTTNYADSVKGRFTISRDNAKNTVYLQMNSLKPEDTAVYYCNADAYLYYKYHWGFTFYQYEYWGQGTQVTVSS” the “polyreactivity (PSR sort gate)” value was “low polyreactivity”. In the case of “QVQLVESGGGLVQAGGSLRLSCAASGSIFAVYAMGWYRQAPGKERELVASITNDGSTYADSVKGRFTISRDNAKNTVYLQINSQKPEDTAVYYCNADYLTYFTTFDYWGQGTQVTVSS”, the “polyreactivity (PSR sort gate)” value is reported as “low polyreactivity”. For “QVQLVESGGGLVQAGGSLRLSCAASGSIFAVYAMGWYRQAPGKERELVASITNDGSTYADSVKGRFTISRDNAKNTVYLQLNSLKPEDTAVYYCNADYLTYFTTFDYWGQGTQVTVSS”, the “polyreactivity (PSR sort gate)” value was “low polyreactivity”. With “QVQLVESGGGLVQAGGSLRLSCAASGSIFAVYAMGWYRQAPGKERELVAVITRSGGSTYYADSVKGRFTISRDNAKNTVYLQMNSLKPEDTEVYYCAARSGYGYTRYEYWGQGTQVTVSS” the “polyreactivity (PSR sort gate)” value was “high polyreactivity”. In the case of “QVQLVESGGGLVQAGGSLRLSCAASGSIFAVYTMGWYRQAPGKERELVAAINWSGARTYYADSVKGRFTISRDNEKNTVYLQMNSLKPEDSAVYYCAAESRLGVAYIYWGQGTQVTVSS”, the “polyreactivity (PSR sort gate)” value is reported as “low polyreactivity”. In the case of “QVQLVESGGGLVQAGGSLRLSCAASGSIFAWYAMGWYRQAPGKERELVATITWSGGSTYYADSVKGRFTISRDNAKNTVYLQMNSLKPEDTAVYYCAAEVVGIWYDLWYQGDYWGQGTQVTVSS”, the “polyreactivity (PSR sort gate)” value is reported as “low polyreactivity”. In the case of “QVQLVESGGGLVQAGGSLRLSCAASGSIFAWYGMGWYRQAPGKERELVAAISTAGSTNYADSVKGRFTISRDNAKNTVYLQMNSLKQEDSAVYYCAKKSSWYYPERFDYWGQGTQVNVSS”, the “polyreactivity (PSR sort gate)” value is reported as “low polyreactivity”. In the case of “QVQLVESGGGLVQAGGSLRLSCAASGSIFAYAMGWDRQAPGKERELFAAISGGSTYYADSVKGRFTISRDNAKNTVYLQMNSLNPEDTAVYSCAADLDDERYYWGQGTQVTVSS”, the “polyreactivity (PSR sort gate)” value is reported as “low polyreactivity”. With “QVQLVESGGGLVQAGGSLRLSCAASGSIFAYNAMGRYRQAPGKEREYVAAISQSGGRTYYADSVKGRFTISRDTSKNTVYLQMNSLKPEDTAVYYCATDGIRLTRHRDYDYWGQGTQVTVSS” the “polyreactivity (PSR sort gate)” value was “low polyreactivity”. With “QVQLVESGGGLVQAGGSLRLSCAASGSIFAYNAMGWYRQAPGKEREFVAVITRSDDSTYADSVKGRFTISRDNAKNTVFLQMNRLKPEDTAVYDCAAQPFVIDGGYRGDYWGQGTQVTVSS” the “polyreactivity (PSR sort gate)” value was “low polyreactivity”. For “QVQLVESGGGLVQAGGSLRLSCAASGSIFAYNAMGWYRQAPGKERELVAAISAGGRTKYADSVKGRFTISRDNAKNTVYLQMNCLKPEDTAVYYCAAESYTGKYSWVWKWYDYWGQGTQVTVSS”, the “polyreactivity (PSR sort gate)” value was “low polyreactivity”. With “QVQLVESGGGLVQAGGSLRLSCAASGSIFAYNAMGWYRQAPGKERELVAAITRSGVNTYYADSVKGRFTISRDNAKNTVYLQMNRLKPEDTAVYYCNAVFWGLQKWPQ” the “polyreactivity (PSR sort gate)” value was “low polyreactivity”. For “QVQLVESGGGLVQAGGSLRLSCAASGSIFAYNAMGWYRQAPGKERELVAGISSRGVSTYADSVKGRFTISRDNAKNTVYLQMNSLKPEDTAVYYCARGGYWGKRGRYDYWGQGTQVTVSS”, the “polyreactivity (PSR sort gate)” value was “low polyreactivity”. With “QVQLVESGGGLVQAGGSLRLSCAASGSIFAYNGMGGYRQPPGKERELVAAISRRGGSTTYADSVKGRFTISRDNAKNTVYLQMNSLKPEDTAVYYCNTGAWSVRKMYYWGQGTQVTVSS” the “polyreactivity (PSR sort gate)” value was “high polyreactivity”. For “QVQLVESGGGLVQAGGSLRLSCAASGSIFAYYAMGWYRQAPGKEREFVAAISKRGGRTYYADSVKGRFTISRDNAKNTVYLQMNSLKPEDTAVYYCAAPWAYPRSGGDYWGQGTQVTVSS”, the “polyreactivity (PSR sort gate)” value was “high polyreactivity”. With “QVQLVESGGGLVQAGGSLRLSCAASGSIFAYYAMGWYRQAPGKERELVAAISRRGGSTYYADSVKGRFTISRDNAKNTVYLQMNSLKPEDTAVYYCAARRSTQYKTGVDSWGQGTQVTVSS” the “polyreactivity (PSR sort gate)” value was “high polyreactivity”. With “QVQLVESGGGLVQAGGSLRLSCAASGSIFAYYAMGWYRQAPGKERELVAAISSSGGSTTYADSVKGRFTISRDNAKNTVYLQMNSLKPEDTAVYYCNAAWRRSRYYYWGQGTQVTVSS” the “polyreactivity (PSR sort gate)” value was “high polyreactivity”. In the case of “QVQLVESGGGLVQAGGSLRLSCAASGSIFAYYAMGWYRQAPGKESELVARITYSTDGTYYADSVKGRFTISRDNAKNTVYLQMNSLKPEDTAVYYCAVDTWWGFKRYKFDYWGQGTQVTVSS”, the “polyreactivity (PSR sort gate)” value is reported as “low polyreactivity”. For “QVQLVESGGGLVQAGGSLRLSCAASGSIFAYYSMGWYIQAPGKERELVAAISWSGGSTYYADSVKGRFTISRDNAKNTVYLQMNSLKPEDTAVYYCNVARSYSKMYWGQGTQVTVSS”, the “polyreactivity (PSR sort gate)” value was “high polyreactivity”. In the case of “QVQLVESGGGLVQAGGSLRLSCAASGSIFAYYTMGWYRQAPGKERELVARISSRGGRTYYADSVKGRFTISRDNAKNTVYLQMNSLKPEDTAVYYCNAGYSYRKYDYWGQGTQVTVSS”, the “polyreactivity (PSR sort gate)” value is reported as “high polyreactivity”. In the case of “QVQLVESGGGLVQAGGSLRLSCAASGSIFAYYTMGWYRQAPGNERELVATISSGDITNYADSVKGRFTISRDNAKNTVYLQMNSLKPEDTAVYYCAAAELTSYYRTFIHQDYDYWGQGTQVTVSS”, the “polyreactivity (PSR sort gate)” value is reported as “low polyreactivity”. With “QVQLVESGGGLVQAGGSLRLSCAASGSIFAYYVMGWYRHAHGKERELVAAISARGGRTYYADSVKGRFTISRDNAKNTVYLQMNSLKQEDTAVYYCNALDQRYSQAVEYDYWGQGTQVTVSS” the “polyreactivity (PSR sort gate)” value was “high polyreactivity”. For “QVQLVESGGGLVQAGGSLRLSCAASGSIFCRYDMGWLDRRLGKKGSSLPLLLVLVTTRTTQTPVKGRFTISRDNAKNTVYLQIICLKPEDTAVYNCAADLRASGLKYEYWGQGTQVTVSS”, the “polyreactivity (PSR sort gate)” value was “low polyreactivity”. For “QVQLVESGGGLVQAGGSLRLSCAASGSIFCYNTMGWYRQAPGKERELVAAITFSGGSTYYADSVKGRFTISRDNAKNTVYLKMNSLKPEDTAVYYCAAVFYSAVGYYYWGQGTQVTVSS”, the “polyreactivity (PSR sort gate)” value was “low polyreactivity”. In the case of “QVQLVESGGGLVQAGGSLRLSCAASGSIFDAYALGWYRQAPGKERELVADITFSAGRTYYADSVKGRFTITRDNAKNTVYLQMNSLKPEDTAVYYCAADSIVGDGYWSYYWGQGTQVTVSS”, the “polyreactivity (PSR sort gate)” value is reported as “low polyreactivity”. In the case of “QVQLVESGGGLVQAGGSLRLSCAASGSIFDDNTMGWYRQAPGKERELVAAISSRGGSTYYADSVKGRFTISRDNAKNTVYLQMNSLKPEDTAVYYCATGPRWTWEGSRWKLEFDSWGQGTQVTVSS”, the “polyreactivity (PSR sort gate)” value is reported as “low polyreactivity”. With “QVQLVESGGGLVQAGGSLRLSCAASGSIFDDYAMGCYIHAPGKERELVAAITWNGGSTYADSVKGRFTISRDNAKNTVYLQMNSLKPEDTAVYYCAADYFVYWYYGYGYWGQGTQVTVSS” the “polyreactivity (PSR sort gate)” value was “low polyreactivity”. With “QVQLVESGGGLVQAGGSLRLSCAASGSIFDDYAMGWYRQAPGKERELVAAISDSGGSTSYADSVKGRFTISRDNAKNTVYFQMNSLKPEDTAVYYCNADRDDDYDYWGQGTQVTVSS” the “polyreactivity (PSR sort gate)” value was “low polyreactivity”. For “QVQLVESGGGLVQAGGSLRLSCAASGSIFDDYGMGWYRQAPGKEWEFVADITSRGTRTYYADSVKGRFTISRDNAKNTVYLQMNCLKPEDTAGYYFNTLVGVDFWLVDYWGQGTQVTLSS”, the “polyreactivity (PSR sort gate)” value was “low polyreactivity”. With “QVQLVESGGGLVQAGGSLRLSCAASGSIFDFYAMGCYRQAPGKERELVAAISGSGGSTYYADSVKGRFTMSRDNAKNTVYLQMNSLKPEDTAVYYCSYYYWGQRTQVTVSS” the “polyreactivity (PSR sort gate)” value was “low polyreactivity”. In the case of “QVQLVESGGGLVQAGGSLRLSCAASGSIFDFYAMGWYRQAAGKERELVASITGRGGSTYYADSVKGRFSISRDKAKNTVYFQMNSLKPEDTAVYYCAAATFGRGGFEYWGQGTKVTVSS”, the “polyreactivity (PSR sort gate)” value is reported as “high polyreactivity”. For “QVQLVESGGGLVQAGGSLRLSCAASGSIFDFYAMGWYRQAPGKEREFVAAITQSGASTYADSVKGRFTISRDNAKNTVYLQMNSLKPEDTAVYYCNADSGGRGAPTSTYDYWGQGSQVTVSS”, the “polyreactivity (PSR sort gate)” value was “low polyreactivity”. In the case of “QVQLVESGGGLVQAGGSLRLSCAASGSIFDGNAMGWYSQAPGKERELVAAITTDYRTYYADSVKGRFTISRDNAKNTFYLQMNSLKPEDTAVYYCNVVIYYFNSRTVYYDYDYWGQGTQVTVSS”, the “polyreactivity (PSR sort gate)” value is reported as “high polyreactivity”. With “QVQLVESGGGLVQAGGSLRLSCAASGSIFDGYAMGWYRQAPGKERELVASISSGGSTNYADSVKGRFTISRDNAKNTVYLQMNSLKPEDTAVYYCAAEWVWYKWEFEYWGQGTQVTVSS” the “polyreactivity (PSR sort gate)” value was “high polyreactivity”. With “QVQLVESGGGLVQAGGSLRLSCAASGSIFDGYAMGWYSQAPGKEREFVASIRFSTGRTYYADSVKGRFTISRDNAKNTVYFQMNSLKPEDTAVYYCNAPQGFVWRYSSWGPYDYWGQGTQVTVSS” the “polyreactivity (PSR sort gate)” value was “high polyreactivity”. With “QVQLVESGGGLVQAGGSLRLSCAASGSIFDIYAMGWYRQAPGKERELVAAISWNGGDTTYADSVKGRFTISRDNEKNTVYLQMNSLKPEYTAVYYCAADLGYWVADYYWGQGTQVTVSS” the “polyreactivity (PSR sort gate)” value was “high polyreactivity”. In the case of “QVQLVESGGGLVQAGGSLRLSCAASGSIFDLNAMGWYRQAPGKERELVAAISKSGGSTYYADSVKGRFTISRDNAKNTVYLQMNSLKPEDTAVYYCAARYHEPGYSYKFWGQGTQVTVSS”, the “polyreactivity (PSR sort gate)” value is reported as “low polyreactivity”. With “QVQLVESGGGLVQAGGSLRLSCAASGSIFDLNVMGWYRQAPGKERELVAAITWSGGSTYYADSVKGRFTISRDNAKNTVYLQMNSLKPEDTAVDYCAADTASGDTLRPTLLYDYWGQGTQVTVSS” the “polyreactivity (PSR sort gate)” value was “low polyreactivity”. In the case of “QVQLVESGGGLVQAGGSLRLSCAASGSIFDLYDMGWYRQAPGKERELVAAISLIGGSTSYADSVKGRFTISRDNAKNTVYLQMNSLKPEDTAVYYCAVEKFFRAEYDHWGQGTQVTVSS”, the “polyreactivity (PSR sort gate)” value is reported as “low polyreactivity”. In the case of “QVQLVESGGGLVQAGGSLRLSCAASGSIFDPNAMGWYRQAPGKERELVAVITWSSSSTYYADSVKGRFTISRDNAKNTVYLQMNSLKPEDTAVYYCAAVVQGTTVWWGYDYWGQGTLVTVSS”, the “polyreactivity (PSR sort gate)” value is reported as “low polyreactivity”. With “QVQLVESGGGLVQAGGSLRLSCAASGSIFDRNAMGWYRQAPGKERELVAAISRSSGNTYYADSVKGRFTISRDNAKNTVYLQMNSLNPEDTAVYYCNKAVSYGTYKYYYWGQGTQVTVSS” the “polyreactivity (PSR sort gate)” value was “high polyreactivity”. For “QVQLVESGGGLVQAGGSLRLSCAASGSIFDRYAMGWYRQAPGKDRELVAAITWSGGSTRYADSVNGRFTISRDNAKNTVYLQMNILKPEDTAVYYCPASSTRWKVYYWGQGTQVTVSS”, the “polyreactivity (PSR sort gate)” value was “high polyreactivity”.

From the nanobody polyreactivity screen of Harvey et al. (2022)
